How the values were obtained:
[1] = molecular target: Fyn (UniProt P06241); assay: phosphorylation enrichment, bacterial display (enrichment ratio); higher = better substrate or ligand; peptides without Tyr show the background
[2] = molecular target: EPHB2 (UniProt P29323); assay: as above
[3] = molecular target: Jak2 (UniProt O60674); assay: as above
[4] = test system: c-Abl (mouse); assay: as above
[5] = test system: Fer (mouse); assay: as above
[6] = molecular target: MERTK (UniProt Q12866); assay: as above
[7] = molecular target: FGFR1 (UniProt P11362); assay: as above
[8] = test system: AncSZ; assay: as above
[9] = molecular target: Hck (UniProt P08631); assay: as above
[10] = molecular target: Fes (UniProt P07332); assay: as above
[11] = molecular target: EPHB1 (UniProt P54762); assay: as above
[12] = molecular target: FGFR3 (UniProt P22607); assay: as above
[13] = test system: c-Src; assay: as above
[14] = molecular target: SHP2-C SH2; assay: SH2 binding enrichment of the phosphorylated peptide, bacterial display (enrichment ratio); higher = better substrate or ligand; peptides without Tyr show the background
[15] = molecular target: c-Src SH2; assay: as above
[16] = molecular target: Grb2 SH2 (UniProt P62993); assay: as above
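For SH2 binding enrichment of the phosphorylated peptide, bacterial display in this document: peptide library displayed on the E. coli surface as eCPX fusions, selected cells deep-sequenced, score is each peptide's frequency after selection divided by its frequency in the input.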
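For phosphorylation enrichment, bacterial display in this document: 11-residue human phosphosite peptides and single-mutation variants displayed on the E. coli surface, counted by deep sequencing, each peptide's frequency after selection divided by its frequency in the unselected input library; frequency after pTyr selection over input frequency; kinase dosed for 20-30% of maximal phosphorylation in three min.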

Sequence of Hck (P08631 whole entry, looked up): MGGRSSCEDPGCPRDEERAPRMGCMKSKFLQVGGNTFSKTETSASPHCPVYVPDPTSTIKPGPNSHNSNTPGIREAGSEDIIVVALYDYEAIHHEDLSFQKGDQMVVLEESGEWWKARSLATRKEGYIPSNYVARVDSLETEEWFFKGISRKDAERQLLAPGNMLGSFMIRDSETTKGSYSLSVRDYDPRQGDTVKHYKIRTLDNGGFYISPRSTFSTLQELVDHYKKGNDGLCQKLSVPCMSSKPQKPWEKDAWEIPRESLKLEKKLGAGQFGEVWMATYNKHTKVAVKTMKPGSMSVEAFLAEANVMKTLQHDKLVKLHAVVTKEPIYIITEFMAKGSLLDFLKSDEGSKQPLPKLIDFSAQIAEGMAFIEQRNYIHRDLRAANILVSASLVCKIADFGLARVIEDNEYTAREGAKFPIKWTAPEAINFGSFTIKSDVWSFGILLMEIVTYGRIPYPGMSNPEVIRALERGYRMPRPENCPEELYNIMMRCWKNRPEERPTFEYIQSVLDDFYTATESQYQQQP
Sequence of MERTK (Q12866 whole entry, looked up): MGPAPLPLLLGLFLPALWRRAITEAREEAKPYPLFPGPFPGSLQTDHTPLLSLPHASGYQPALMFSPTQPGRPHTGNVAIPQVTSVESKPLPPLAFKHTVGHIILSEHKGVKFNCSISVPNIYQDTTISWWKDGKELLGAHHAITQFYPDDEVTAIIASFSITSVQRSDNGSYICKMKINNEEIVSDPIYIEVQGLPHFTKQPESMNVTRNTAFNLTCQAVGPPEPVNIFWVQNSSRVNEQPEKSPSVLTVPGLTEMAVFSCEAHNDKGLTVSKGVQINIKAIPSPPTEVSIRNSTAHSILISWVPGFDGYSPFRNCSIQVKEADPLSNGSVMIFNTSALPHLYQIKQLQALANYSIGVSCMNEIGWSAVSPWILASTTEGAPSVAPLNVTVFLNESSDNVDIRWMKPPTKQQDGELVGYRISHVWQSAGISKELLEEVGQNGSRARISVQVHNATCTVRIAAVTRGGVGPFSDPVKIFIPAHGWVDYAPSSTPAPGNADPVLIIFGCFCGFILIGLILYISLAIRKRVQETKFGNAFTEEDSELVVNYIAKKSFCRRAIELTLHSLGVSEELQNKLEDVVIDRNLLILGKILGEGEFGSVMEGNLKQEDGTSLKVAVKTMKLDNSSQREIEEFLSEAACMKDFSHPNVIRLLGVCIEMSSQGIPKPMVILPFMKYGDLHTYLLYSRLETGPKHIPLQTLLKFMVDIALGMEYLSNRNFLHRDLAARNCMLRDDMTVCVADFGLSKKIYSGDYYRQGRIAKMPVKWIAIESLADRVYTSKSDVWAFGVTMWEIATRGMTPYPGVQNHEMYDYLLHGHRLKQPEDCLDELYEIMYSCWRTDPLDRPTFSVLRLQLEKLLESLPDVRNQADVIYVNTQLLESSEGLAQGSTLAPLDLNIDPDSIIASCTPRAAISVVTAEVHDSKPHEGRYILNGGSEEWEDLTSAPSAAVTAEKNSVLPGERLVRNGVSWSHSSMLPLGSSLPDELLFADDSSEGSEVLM
Sequence of EPHB1 (P54762 whole entry, looked up): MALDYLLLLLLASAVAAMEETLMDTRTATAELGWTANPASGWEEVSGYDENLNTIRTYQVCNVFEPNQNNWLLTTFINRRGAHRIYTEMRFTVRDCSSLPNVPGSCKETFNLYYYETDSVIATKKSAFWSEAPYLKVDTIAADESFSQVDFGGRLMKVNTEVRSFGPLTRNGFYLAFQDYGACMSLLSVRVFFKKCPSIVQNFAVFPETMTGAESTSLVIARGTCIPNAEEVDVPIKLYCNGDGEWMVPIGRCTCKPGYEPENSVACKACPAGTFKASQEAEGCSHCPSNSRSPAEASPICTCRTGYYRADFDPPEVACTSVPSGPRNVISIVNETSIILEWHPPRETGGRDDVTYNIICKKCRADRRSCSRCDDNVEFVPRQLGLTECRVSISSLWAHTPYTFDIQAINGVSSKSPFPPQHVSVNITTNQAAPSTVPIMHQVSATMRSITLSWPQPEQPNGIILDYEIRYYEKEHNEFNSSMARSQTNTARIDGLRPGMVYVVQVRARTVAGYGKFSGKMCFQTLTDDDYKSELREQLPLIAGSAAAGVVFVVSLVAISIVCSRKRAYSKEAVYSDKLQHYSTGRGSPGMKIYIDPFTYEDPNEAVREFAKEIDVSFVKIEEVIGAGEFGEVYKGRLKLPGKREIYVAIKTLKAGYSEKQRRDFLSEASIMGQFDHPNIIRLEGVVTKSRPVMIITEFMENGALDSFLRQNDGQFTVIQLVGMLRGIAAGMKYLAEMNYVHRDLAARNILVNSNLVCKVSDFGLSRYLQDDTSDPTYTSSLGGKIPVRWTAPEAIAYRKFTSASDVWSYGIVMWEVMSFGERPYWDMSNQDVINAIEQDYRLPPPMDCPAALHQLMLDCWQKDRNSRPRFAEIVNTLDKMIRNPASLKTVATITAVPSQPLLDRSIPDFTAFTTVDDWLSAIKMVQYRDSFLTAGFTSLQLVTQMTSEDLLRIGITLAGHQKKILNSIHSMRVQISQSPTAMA
Sequence of Grb2 SH2 (P62993 whole entry, looked up, the tested form may be a part): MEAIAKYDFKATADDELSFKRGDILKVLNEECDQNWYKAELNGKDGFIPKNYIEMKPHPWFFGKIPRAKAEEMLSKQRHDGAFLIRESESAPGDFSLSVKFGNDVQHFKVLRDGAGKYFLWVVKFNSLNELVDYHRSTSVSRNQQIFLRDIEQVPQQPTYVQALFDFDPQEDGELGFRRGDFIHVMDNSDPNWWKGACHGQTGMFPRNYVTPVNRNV
Sequence of Jak2 (O60674 whole entry, looked up): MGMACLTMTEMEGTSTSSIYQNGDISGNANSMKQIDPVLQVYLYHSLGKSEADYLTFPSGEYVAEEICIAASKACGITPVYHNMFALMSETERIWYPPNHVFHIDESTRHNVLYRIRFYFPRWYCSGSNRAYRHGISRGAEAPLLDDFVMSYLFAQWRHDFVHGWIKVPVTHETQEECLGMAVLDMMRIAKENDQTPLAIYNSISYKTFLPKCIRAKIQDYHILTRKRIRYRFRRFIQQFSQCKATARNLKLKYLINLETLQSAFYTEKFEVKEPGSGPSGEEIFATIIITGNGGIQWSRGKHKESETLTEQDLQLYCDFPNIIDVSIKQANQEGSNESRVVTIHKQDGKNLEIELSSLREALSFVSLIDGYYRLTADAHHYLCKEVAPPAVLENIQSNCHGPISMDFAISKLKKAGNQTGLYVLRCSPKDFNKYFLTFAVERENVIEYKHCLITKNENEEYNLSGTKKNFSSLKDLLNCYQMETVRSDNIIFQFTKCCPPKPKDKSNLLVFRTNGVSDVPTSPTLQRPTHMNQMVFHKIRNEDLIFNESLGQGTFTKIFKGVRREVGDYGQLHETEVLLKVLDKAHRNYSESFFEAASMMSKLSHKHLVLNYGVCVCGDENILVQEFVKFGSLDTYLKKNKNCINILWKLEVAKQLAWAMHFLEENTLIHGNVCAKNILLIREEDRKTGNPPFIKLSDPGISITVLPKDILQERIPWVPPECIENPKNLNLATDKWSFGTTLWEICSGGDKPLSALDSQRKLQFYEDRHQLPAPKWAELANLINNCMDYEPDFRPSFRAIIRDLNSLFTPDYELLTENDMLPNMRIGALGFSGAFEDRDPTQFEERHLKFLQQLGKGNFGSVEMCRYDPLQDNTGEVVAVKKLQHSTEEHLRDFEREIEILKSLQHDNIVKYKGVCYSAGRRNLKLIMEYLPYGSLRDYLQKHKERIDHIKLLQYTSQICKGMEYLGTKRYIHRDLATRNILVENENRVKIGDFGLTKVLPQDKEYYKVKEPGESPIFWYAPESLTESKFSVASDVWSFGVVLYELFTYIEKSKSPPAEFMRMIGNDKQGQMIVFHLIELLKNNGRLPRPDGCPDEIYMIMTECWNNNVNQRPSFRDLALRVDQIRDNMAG
Sequence of FGFR3 (P22607 whole entry, looked up): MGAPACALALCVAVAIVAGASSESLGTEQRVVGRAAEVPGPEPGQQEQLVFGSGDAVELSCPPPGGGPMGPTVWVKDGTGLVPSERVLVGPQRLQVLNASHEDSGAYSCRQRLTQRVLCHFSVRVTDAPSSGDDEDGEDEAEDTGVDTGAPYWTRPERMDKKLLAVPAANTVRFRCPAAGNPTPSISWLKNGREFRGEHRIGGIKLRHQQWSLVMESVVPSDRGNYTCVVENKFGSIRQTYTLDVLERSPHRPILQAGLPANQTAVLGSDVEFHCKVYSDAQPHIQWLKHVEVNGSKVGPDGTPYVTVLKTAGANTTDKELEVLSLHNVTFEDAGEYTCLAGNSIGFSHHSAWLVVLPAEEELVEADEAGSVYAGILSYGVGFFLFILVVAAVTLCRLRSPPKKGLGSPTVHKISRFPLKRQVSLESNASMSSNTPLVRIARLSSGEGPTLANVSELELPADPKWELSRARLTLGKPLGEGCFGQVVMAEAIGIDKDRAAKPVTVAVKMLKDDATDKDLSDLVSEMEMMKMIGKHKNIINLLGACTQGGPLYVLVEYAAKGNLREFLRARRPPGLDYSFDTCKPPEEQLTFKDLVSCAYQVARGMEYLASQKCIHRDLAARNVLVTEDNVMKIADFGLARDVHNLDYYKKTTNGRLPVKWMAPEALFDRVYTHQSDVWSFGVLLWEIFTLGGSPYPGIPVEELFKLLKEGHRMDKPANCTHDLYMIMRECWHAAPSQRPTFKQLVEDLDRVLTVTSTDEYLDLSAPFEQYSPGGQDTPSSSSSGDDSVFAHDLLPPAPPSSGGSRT

## TGSFTYEAVEL [MTMR14_Y462]
[1]
  phosphorylation enrichment: 2.21
[2]
  phosphorylation enrichment: 3.89
[3]
  phosphorylation enrichment: 1.31
[4]
  phosphorylation enrichment: 0.801
[5]
  phosphorylation enrichment: 13.1
[6]
  phosphorylation enrichment: 1.87
[7]
  phosphorylation enrichment: 0.466
[8]
  phosphorylation enrichment: 1.77
[9]
  phosphorylation enrichment: 1.78
[10]
  phosphorylation enrichment: 1.24
[11]
  phosphorylation enrichment: 6.56
[12]
  phosphorylation enrichment: 0.711
[13]
  phosphorylation enrichment: 2.45
[14]
  SH2 binding enrichment: 0.768
[15]
  SH2 binding enrichment: 0.653
[16]
  SH2 binding enrichment: 0.664

## FLAAIYPTVGQ [NF1_Y2508_T2507I_YF]
[1]
  phosphorylation enrichment: 0.39
[2]
  phosphorylation enrichment: 0.358
[3]
  phosphorylation enrichment: 0.798
[4]
  phosphorylation enrichment: 0.389
[5]
  phosphorylation enrichment: 0.382
[6]
  phosphorylation enrichment: 0.406
[7]
  phosphorylation enrichment: 0.473
[8]
  phosphorylation enrichment: 0.724
[9]
  phosphorylation enrichment: 0.477
[10]
  phosphorylation enrichment: 0.943
[11]
  phosphorylation enrichment: 0.58
[12]
  phosphorylation enrichment: 0.583
[13]
  phosphorylation enrichment: 0.442
[14]
  SH2 binding enrichment: 0.641
[15]
  SH2 binding enrichment: 0.759
[16]
  SH2 binding enrichment: 1.01

## RLQKLYLDRNL [IGFALS_Y248]
[1]
  phosphorylation enrichment: 0.811
[2]
  phosphorylation enrichment: 0.43
[3]
  phosphorylation enrichment: 1.63
[4]
  phosphorylation enrichment: 1.16
[5]
  phosphorylation enrichment: 0.795
[6]
  phosphorylation enrichment: 0.868
[7]
  phosphorylation enrichment: 0.776
[8]
  phosphorylation enrichment: 0.812
[9]
  phosphorylation enrichment: 0.975
[10]
  phosphorylation enrichment: 1.23
[11]
  phosphorylation enrichment: 1.4
[12]
  phosphorylation enrichment: 0.787
[13]
  phosphorylation enrichment: 0.851
[14]
  SH2 binding enrichment: 0.634
[15]
  SH2 binding enrichment: 0.393
[16]
  SH2 binding enrichment: 0.884

## YYYDLYGGEKF [PTPN11_Y66_D61Y]
[1]
  phosphorylation enrichment: 5.97
[2]
  phosphorylation enrichment: 11.5
[3]
  phosphorylation enrichment: 5.36
[4]
  phosphorylation enrichment: 0.964
[5]
  phosphorylation enrichment: 4.15
[6]
  phosphorylation enrichment: 9.48
[7]
  phosphorylation enrichment: 14.7
[8]
  phosphorylation enrichment: 1.98
[9]
  phosphorylation enrichment: 6.45
[10]
  phosphorylation enrichment: 1.3
[11]
  phosphorylation enrichment: 7.99
[12]
  phosphorylation enrichment: 13.6
[13]
  phosphorylation enrichment: 5.71
[14]
  SH2 binding enrichment: 1.63
[15]
  SH2 binding enrichment: 4.39
[16]
  SH2 binding enrichment: 1.43

## SLGKGYFDGGC [MC4R_Y35_S36Y_YF]
[1]
  phosphorylation enrichment: 0.377
[2]
  phosphorylation enrichment: 0.529
[3]
  phosphorylation enrichment: 0.889
[4]
  phosphorylation enrichment: 0.842
[5]
  phosphorylation enrichment: 0.35
[6]
  phosphorylation enrichment: 0.389
[7]
  phosphorylation enrichment: 0.434
[8]
  phosphorylation enrichment: 0.922
[9]
  phosphorylation enrichment: 0.429
[10]
  phosphorylation enrichment: 0.924
[11]
  phosphorylation enrichment: 0.452
[12]
  phosphorylation enrichment: 0.611
[13]
  phosphorylation enrichment: 0.481
[14]
  SH2 binding enrichment: 0.704
[15]
  SH2 binding enrichment: 0.555
[16]
  SH2 binding enrichment: 0.838

## HNVPIYEGYAL [ACTA1_Y168]
[1]
  phosphorylation enrichment: 16.9
[2]
  phosphorylation enrichment: 35.1
[3]
  phosphorylation enrichment: 1.06
[4]
  phosphorylation enrichment: 13.2
[5]
  phosphorylation enrichment: 24.7
[6]
  phosphorylation enrichment: 13.1
[7]
  phosphorylation enrichment: 0.792
[8]
  phosphorylation enrichment: 1.56
[9]
  phosphorylation enrichment: 15.1
[10]
  phosphorylation enrichment: 5.3
[11]
  phosphorylation enrichment: 26
[12]
  phosphorylation enrichment: 0.616
[13]
  phosphorylation enrichment: 12.6
[14]
  SH2 binding enrichment: 1.01
[15]
  SH2 binding enrichment: 2.97
[16]
  SH2 binding enrichment: 0.881

## EALDFYGEVRT [PTEN_Y155]
[1]
  phosphorylation enrichment: 1
[2]
  phosphorylation enrichment: 0.65
[3]
  phosphorylation enrichment: 1.51
[4]
  phosphorylation enrichment: 0.825
[5]
  phosphorylation enrichment: 0.707
[6]
  phosphorylation enrichment: 0.37
[7]
  phosphorylation enrichment: 0.501
[8]
  phosphorylation enrichment: 1.23
[9]
  phosphorylation enrichment: 0.918
[10]
  phosphorylation enrichment: 1.39
[11]
  phosphorylation enrichment: 0.829
[12]
  phosphorylation enrichment: 0.872
[13]
  phosphorylation enrichment: 1.01
[14]
  SH2 binding enrichment: 0.643
[15]
  SH2 binding enrichment: 0.458
[16]
  SH2 binding enrichment: 0.635

## RYVYYYSYLLK [PTEN_Y178]
[1]
  phosphorylation enrichment: 1.15
[2]
  phosphorylation enrichment: 1.64
[3]
  phosphorylation enrichment: 2.76
[4]
  phosphorylation enrichment: 1.83
[5]
  phosphorylation enrichment: 1.09
[6]
  phosphorylation enrichment: 5.99
[7]
  phosphorylation enrichment: 4.48
[8]
  phosphorylation enrichment: 1.74
[9]
  phosphorylation enrichment: 1.99
[10]
  phosphorylation enrichment: 1.82
[11]
  phosphorylation enrichment: 2.55
[12]
  phosphorylation enrichment: 3.85
[13]
  phosphorylation enrichment: 2.48
[14]
  SH2 binding enrichment: 1.39
[15]
  SH2 binding enrichment: 0.857
[16]
  SH2 binding enrichment: 1.09

Source: the supplement of paper PMC10065799, “High-throughput profiling of sequence recognition by tyrosine kinases and SH2 domains using bacterial peptide display” (eLife, 2023)
